# Data as given in patent US20230407373A1 (priority 2020, published 2023).
# B1: HNRNPDL (protein, UniProt O14979 1-420, looked up)
# Heterogeneous nuclear …: MEVPPRLSHVPPPLFPSAPATLASRSLSHWRPRPPRQLAPLLPSLAPSSARQGARRAQRHVTAQQPSRLAGGAAIKGGRRRRPDLFRRHFKSSSIQRSAAAAAATRTARQHPPADSSVTMEDMNEYSNIEEFAEGSKINASKNQQDDGKMFIGGLSWDTSKKDLTEYLSRFGEVVDCTIKTDPVTGRSRGFGFVLFKDAASVDKVLELKEHKLDGKLIDPKRAKALKGKEPPKKVFVGGLSPDTSEEQIKEYFGAFGEIENIELPMDTKTNERRGFCFITYTDEEPVKKLLESRYHQIGSGKCEIKVAQPKEVYRQQQQQQKGGRGAAAGGRGGTRGRGRGQGQNWNQGFNNYYDQGYGNYNSAYGGDQNYSGYGGYDYTGYNYGNYGYGQGYADYSGQQSTYGKASRGGGNHQNNYQPY
# B2: DDX5: host protein, UniProt P17844 (protein, UniProt P17844 1-614, looked up)
# Probable ATP-dependent RNA …: MSGYSSDRDRGRDRGFGAPRFGGSRAGPLSGKKFGNPGEKLVKKKWNLDELPKFEKNFYQEHPDLARRTAQEVETYRRSKEITVRGHNCPKPVLNFYEANFPANVMDVIARQNFTEPTAIQAQGWPVALSGLDMVGVAQTGSGKTLSYLLPAIVHINHQPFLERGDGPICLVLAPTRELAQQVQQVAAEYCRACRLKSTCIYGGAPKGPQIRDLERGVEICIATPGRLIDFLECGKTNLRRTTYLVLDEADRMLDMGFEPQIRKIVDQIRPDRQTLMWSATWPKEVRQLAEDFLKDYIHINIGALELSANHNILQIVDVCHDVEKDEKLIRLMEEIMSEKENKTIVFVETKRRCDELTRKMRRDGWPAMGIHGDKSQQERDWVLNEFKHGKAPILIATDVASRGLDVEDVKFVINYDYPNSSEDYIHRIGRTARSTKTGTAYTFFTPNNIKQVSDLISVLREANQAINPKLLQLVEDRGSGRSRGRGGMKDDRRDRYSAGKRGGFNTFRDRENYDRGYSSLLKRDFGAKTQNGVYSAANYTNGSFGSNFVSAGIQTSFRTGNPTGTYQNGYDSTQQYGSNVPNMHNGMNQQAYAYPATAAAPMIGYPMPTGYSQ
# B3: SFPQ: host protein, UniProt P23246 (protein, UniProt P23246 1-707, looked up)
# Splicing factor, proline- and …: MSRDRFRSRGGGGGGFHRRGGGGGRGGLHDFRSPPPGMGLNQNRGPMGPGPGQSGPKPPIPPPPPHQQQQQPPPQQPPPQQPPPHQPPPHPQPHQQQQPPPPPQDSSKPVVAQGPGPAPGVGSAPPASSSAPPATPPTSGAPPGSGPGPTPTPPPAVTSAPPGAPPPTPPSSGVPTTPPQAGGPPPPPAAVPGPGPGPKQGPGPGGPKGGKMPGGPKPGGGPGLSTPGGHPKPPHRGGGEPRGGRQHHPPYHQQHHQGPPPGGPGGRSEEKISDSEGFKANLSLLRRPGEKTYTQRCRLFVGNLPADITEDEFKRLFAKYGEPGEVFINKGKGFGFIKLESRALAEIAKAELDDTPMRGRQLRVRFATHAAALSVRNLSPYVSNELLEEAFSQFGPIERAVVIVDDRGRSTGKGIVEFASKPAARKAFERCSEGVFLLTTTPRPVIVEPLEQLDDEDGLPEKLAQKNPMYQKERETPPRFAQHGTFEYEYSQRWKSLDEMEKQQREQVEKNMKDAKDKLESEMEDAYHEHQANLLRQDLMRRQEELRRMEELHNQEMQKRKEMQLRQEEERRRREEEMMIRQREMEEQMRRQREESYSRMGYMDPRERDMRMGGGGAMNMGDPYGSGGQKFPPLGGGGGIGYEANPGVPPATMSGSMMGSDMRTERFGQGGAGPVGGQGPRGMGPGTPAGYGRGREEYEGPNKKPRF
# B4: RBM3: host protein, UniProt P98179 (protein, UniProt P98179 1-157, looked up)
# RNA-binding protein 3: MSSEEGKLFVGGLNFNTDEQALEDHFSSFGPISEVVVVKDRETQRSRGFGFITFTNPEHASVAMRAMNGESLDGRQIRVDHAGKSARGTRGGGFGAHGRGRSYSRGGGDQGYGSGRYYDSRPGGYGYGYGRSRDYNGRNQGGYDRYSGGNYRDNYDN
# B5: SERBP1 (protein, UniProt Q8NC51 2-408, looked up)
# SERPINE1 mRNA-binding protein …: PGHLQEGFGCVVTNRFDQLFDDESDPFEVLKAAENKKKEAGGGGVGGPGAKSAAQAAAQTNSNAAGKQLRKESQKDRKNPLPPSVGVVDKKEETQPPVALKKEGIRRVGRRPDQQLQGEGKIIDRRPERRPPRERRFEKPLEEKGEGGEFSVDRPIIDRPIRGRGGLGRGRGGRGRGMGRGDGFDSRGKREFDRHSGSDRSSFSHYSGLKHEDKRGGSGSHNWGTVKDELTESPKYIQKQISYNYSDLDQSNVTEETPEGEEHHPVADTENKENEVEEVKEEGPKEMTLDEWKAIQNKDRAKVEFNIRKPNEGADGQWKKGFVLHKSKSEEAHAEDSVMDHHFRKPANDITSQLEINFGDLGRPGRGGRGGRGGRGRGGRPNRGSRTDKSSASAPDVDDPEAFPALA
# B6: HNRNPL: host protein, UniProt P14866 (protein, UniProt P14866 1-589, looked up)
# Heterogeneous nuclear …: MSRRLLPRAEKRRRRLEQRQQPDEQRRRSGAMVKMAAAGGGGGGGRYYGGGSEGGRAPKRLKTDNAGDQHGGGGGGGGGAGAAGGGGGGENYDDPHKTPASPVVHIRGLIDGVVEADLVEALQEFGPISYVVVMPKKRQALVEFEDVLGACNAVNYAADNQIYIAGHPAFVNYSTSQKISRPGDSDDSRSVNSVLLFTILNPIYSITTDVLYTICNPCGPVQRIVIFRKNGVQAMVEFDSVQSAQRAKASLNGADIYSGCCTLKIEYAKPTRLNVFKNDQDTWDYTNPNLSGQGDPGSNPNKRQRQPPLLGDHPAEYGGPHGGYHSHYHDEGYGPPPPHYEGRRMGPPVGGHRRGPSRYGPQYGHPPPPPPPPEYGPHADSPVLMVYGLDQSKMNCDRVFNVFCLYGNVEKVKFMKSKPGAAMVEMADGYAVDRAITHLNNNFMFGQKLNVCVSKQPAIMPGQSYGLEDGSCSYKDFSESRNNRFSTPEQAAKNRIQHPSNVLHFFNAPLEVTEENFFEICDELGVKRPSSVKVFSGKSERSSSGLLEWESKSDALETLGFLNHYQMKNPNGPYPYTLKLCFSTAQHAS
# Tested on: SARS-CoV-2 gRNA and sgRNAs
# Assay type: binding
# Details: Probe II capture; […]; LC-MS/MS LFQ
row,Molecule,target (unweighted spectral count in RNP capture)
1,B1,25
2,B2,24
3,B3,38
4,B4,21
5,B5,30

# Same assay, conditions: no-probe control pull-down, used as background for Probe II
row,Molecule,background (unweighted spectral count in control)
1,B1,1
2,B6,1
3,B2,1
4,B3,1
5,B4,1
6,B5,1

# Tested on: HCoV-OC43 gRNA and sgRNA
# Assay type: binding
# Details: 24 hpi; type n_24_v; tested against no-probe control; FDR<10%
row,Molecule,"target (unweighted spectral count, OC43 Probe II capture)"
1,B4,6

# Same assay, conditions: 36 hpi; type n_36_v; tested against no-probe control; FDR<10%
row,Molecule,"target (unweighted spectral count, OC43 Probe II capture)"
1,B6,42
2,B3,36
3,B4,10
4,B5,15

# Same assay, conditions: OC43 Probe II, 12 hpi (type n_12_v), infected cells; tested against no-probe control
row,Molecule,target (unweighted spectral count)
1,B1,6
2,B6,12
3,B2,8

# Same assay, conditions: OC43 Probe II, 24 hpi (type n_24_v), infected cells; tested against no-probe control
row,Molecule,target (unweighted spectral count)
1,B1,9
2,B6,25
3,B3,16
4,B5,6

# Same assay, conditions: type n_48_v; 48 hpi; OC43 Probe II capture on infected cells
row,Molecule,"target (unweighted spectral count, OC43 Probe II)"
1,B1,18
2,B6,46
3,B2,31
4,B3,33
5,B5,18

# Same assay, conditions: type n_48_v; 48 hpi; no-probe control on infected cells
row,Molecule,"background (unweighted spectral count, no-probe control)"
1,B1,3
2,B6,2
3,B2,3
4,B3,7
5,B5,4

# Same assay, conditions: type s_36_m; HCoV-OC43-infected HCT-8 cells, 36 hpi, Probe II
row,Molecule,target (spectral count)
1,B6,42
2,B2,33
3,B3,36

# Same assay, conditions: type s_36_m; uninfected-probe control, 36 hpi, Probe II
row,Molecule,background (spectral count)
1,B6,5
2,B2,3
3,B3,3

# Tested on: SARS-CoV-2 gRNA
# Assay type: binding
# Details: […]; LC-MS/MS; Probe I sample (first 199 lines of Table 2)
row,Molecule,target (unweighted spectral count of the protein in the RNP capture)
1,B1,25
2,B6,43
3,B2,32
4,B3,50
5,B4,15
6,B5,17

# Tested on: gRNA of HCoV-OC43
# Assay type: binding
# Details: type g_36_m; HCoV-OC43-infected HCT-8 cells, 36 hpi, Probe I
row,Molecule,target (spectral count)
1,B6,59
2,B2,30
3,B3,33
4,B4,14

# Same assay, conditions: type g_36_m; uninfected-probe control, 36 hpi, Probe I
row,Molecule,background (spectral count)
1,B6,6
2,B2,3
3,B3,7
4,B4,2

# Same assay, conditions: type n_48_v: 48 hours post-infection, infected cells, OC43 Probe I; unweighted spectral count
row,Molecule,"target (spectral count, OC43 Probe I RNP capture)"
1,B1,17
2,B2,30
3,B3,39
4,B4,17
5,B5,19

# Same assay, conditions: type n_48_v: 48 hours post-infection, no-probe control on infected cells
row,Molecule,"background (spectral count, no-probe control)"
1,B1,3
2,B2,3
3,B3,7
4,B4,1
5,B5,4
